Results on three molecules are retold here after US20220267396A1.

“And” between values parts separate entries of the source, which are not always exact repeats. Equal values may be shown once.

The target in assay [1] is anti-DNP mouse IgE antibody (Sigma, USA). In words: BLI (Octet K2), fusion protein amine-coupled to AR2G sensor, anti-DNP mouse IgE in solution 50 pM-3.125 nM. For orientation: In BLI a coated tip is dipped into the sample, and binding shifts an interference pattern.
For assay [2] the target is unchanged. In words: BLI (Octet K2), fusion protein on sensor, anti-DNP mouse IgE in solution.
The target is the same in assay [3]. Put plainly: BLI (Octet K2), average of three runs, fusion protein on sensor, anti-DNP mouse IgE in solution.
In assay [4] the target is T1, IL-10 receptor 1 (IL-10R1), IL-10R His-tag protein.
T1 sequence (Q13651 22-235, species assumed, looked up): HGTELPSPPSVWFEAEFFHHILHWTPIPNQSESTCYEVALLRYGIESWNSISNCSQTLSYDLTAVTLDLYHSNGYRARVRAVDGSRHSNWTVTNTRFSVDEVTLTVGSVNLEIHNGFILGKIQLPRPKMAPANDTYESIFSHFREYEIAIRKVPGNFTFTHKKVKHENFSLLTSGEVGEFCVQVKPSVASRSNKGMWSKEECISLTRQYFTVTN
Put plainly: BLI (Octet K2), IL-10R His-tag amine-coupled to AR2G sensor, fusion protein in solution 0-1,000 nM.

The target is the same in assay [5]. Put plainly: BLI (Octet K2), IL-10R His-tag on sensor.

“FcεRIα-Fc fusion protein not containing IL-10Vm (control) (from UniProt P12319 26-205)”: the dissociation constant Kd is 0.364 nM and 0.478 nM and 0.94 nM in assay [1]; 0.594 nM in assay [3]. Also, the kon in assay [2] was 123000 M⁻¹ s⁻¹ and 149000 M⁻¹ s⁻¹ and 166000 M⁻¹ s⁻¹.

B1: IL-10M (NTIG-linker 1-IL-10V), dimeric IL-10 variant fusion protein of Comparative Example 1 (Fc fusion, not shown: a dimerising Fc or GST)
chain: AAGSGGGGGSGGGGSGGGGSSPGQGTQSENSCTHFPGNLPNMLRDLRDAFSRVKTFFQMKDQLDNLLLKESLLEDFKGYLGCQALSEMIQFYLEEVMPQAENQDPDAKAHVNSLGENLKTLRLRLRRCHRFLPCENKSKAVEQVKNAFNKLQEKGIYKAMSEFDIFINYIEAYMTMKIRN
In assay [4], B1 had a dissociation constant (Kd) of 11.1 nM, a koff of 0.0008 s⁻¹ and a kon of 71100 M⁻¹ s⁻¹.

B2: IL-10M-1 (NTIG-linker 1-IL-10Vm), monomeric IL-10 variant fusion protein of Example 1 (Fc fusion)
chain: SHTQPLGVFLFPPKPKDQLMISRTPEVTCVVVDVSQEDPEVQFNWYVDGVEVHNAKTKPREEQFNSTYRVVSVLTVLHQDWLNGKEYKCKVSNKGLPSSIEKTISKAKGQPREPQVYTLPPSQEEMTKNQVSLTCLVKGFYPSDIAVEWESNGQPENNYKTTPPVLDSDGSFFLYSRLTVDKSRWQEGNVFSCSVLHEALHNHYTQKSLSLSLGAAGSGGGGGSGGGGSGGGGSSPGQGTQSENSCTHFPGNLPNMLRDLRDAFSRVKTFFQMKDQLDNLLLKESLLEDFKGYLGCQALSEMIQFYLEEVMPQAENQDPDIKAHVNSLGENLKTLRLRLRRCHRFLPCENGGSGGSGGSKSKAVEQVKNAFNKLQEKGIYKAMSEFDIFINYIEAYMTMKIRN
Take B2: the fold of KD against Comparative Example 1 (NTIG-IL-10V) in assay [5] was 3 fold. Further, in assay [4], the Kd was determined as 29.2 nM, the off-rate constant (koff) stood at 0.0006 s⁻¹ and the association rate constant (kon) stood at 20600 M⁻¹ s⁻¹.

In general, Kd refers to the constant that tells how readily two partners part at equilibrium. A higher Kd goes with weaker binding. What is called kon is the rate constant with which the complex forms. Read a high kon as faster complex formation. As usually defined, the koff is the rate constant with which the complex falls apart. Low readings indicate slow dissociation, high ones fast dissociation.
